We go through three molecules from paper PMC11947305 (Nature Communications, 2025).

The chains are these.
B2: GST-tagged human HPS4 Δ289-518 (natural protein)
chain: MATSTSTEAKSASWWNYFFLYDGSKVKEEGDPTRAGICYFYPSQTLLDQQELLCGQIAGVVRCVSDISDSPPTLVRLRKLKFAIKVDGDYLWVLGCAVELPDVSCKRFLDQLVGFFNFYNGPVSLAYENCSQEELSTEWDTFIEQILKNTSDLHKIFNSLWNLDQTKVEPLLLLKAARILQTCQRSPHILAGCILYKGLIVSTQLPPSLTAKVLLHRTAPQEQRLPTGEDAPQEHGAALPPNVQIIPVFVTKEEAISLHEFPVEQMTRSLASPAGLQDGSAQHHPKGGGPSADGISSRLTPAESCMGLVRMNLYTHCVKGLVLSLLAEEPLLGDSAAIEEVYHSSLASLNGLEVHLKETLPRDEAASTSSTYNFTHYDRIQSLLMANLPQVATPQDRRFLQAVSLMHSEFAQLPALYEMTVRNASTAVYACCNPIQETYFQQLAPAARSSGFPNPQDGAFSLSGKAKQKLLKHGVNLL
B3: HPS1 (untagged human HPS1, residues 1-700) (natural protein)
chain: MKCVLVATEGAEVLFYWTDQEFEESLRLKFGQSENEEEELPALEDQLSTLLAPVIISSMTMLEKLSDTYTCFSTENGNFLYVLHLFGECLFIAINGDHTESEGDLRRKLYVLKYLFEVHFGLVTVDGHLIRKELRPPDLAQRVQLWEHFQSLLWTYSRLREQEQCFAVEALERLIHPQLCELCIEALERHVIQAVNTSPERGGEEALHAFLLVHSKLLAFYSSHSASSLRPADLLALILLVQDLYPSESTAEDDIQPSPRRARSSQNIPVQQAWSPHSTGPTGGSSAETETDSFSLPEEYFTPAPSPGDQSSGSTIWLEGGTPPMDALQIAEDTLQTLVPHCPVPSGPRRIFLDANVKESYCPLVPHTMYCLPLWQGINLVLLTRSPSAPLALVLSQLMDGFSMLEKKLKEGPEPGASLRSQPLVGDLRQRMDKFVKNRGAQEIQSTWLEFKAKAFSKSEPGSSWELLQACGKLKRQLCAIYRLNFLTTAPSRGGPHLPQHLQDQVQRLMREKLTDWKDFLLVKSRRNITMVSYLEDFPGLVHFIYVDRTTGQMVAPSLNCSQKTSSELGKGPLAAFVKTKVWSLIQLARRYLQKGYTTLLFQEGDFYCSYFLWFENDMGYKLQMIEVPVLSDDSVPIGMLGGDYYRKLLRYYSKNRPTEAVRCYELLALHLSVIPTDLLVQQAGQLARRLWEASRIPLL

In assay [1] the target is T1, Flag-tagged HPS4 wild-type (human, UniProt Q9NQG7 1-708).
T1 sequence: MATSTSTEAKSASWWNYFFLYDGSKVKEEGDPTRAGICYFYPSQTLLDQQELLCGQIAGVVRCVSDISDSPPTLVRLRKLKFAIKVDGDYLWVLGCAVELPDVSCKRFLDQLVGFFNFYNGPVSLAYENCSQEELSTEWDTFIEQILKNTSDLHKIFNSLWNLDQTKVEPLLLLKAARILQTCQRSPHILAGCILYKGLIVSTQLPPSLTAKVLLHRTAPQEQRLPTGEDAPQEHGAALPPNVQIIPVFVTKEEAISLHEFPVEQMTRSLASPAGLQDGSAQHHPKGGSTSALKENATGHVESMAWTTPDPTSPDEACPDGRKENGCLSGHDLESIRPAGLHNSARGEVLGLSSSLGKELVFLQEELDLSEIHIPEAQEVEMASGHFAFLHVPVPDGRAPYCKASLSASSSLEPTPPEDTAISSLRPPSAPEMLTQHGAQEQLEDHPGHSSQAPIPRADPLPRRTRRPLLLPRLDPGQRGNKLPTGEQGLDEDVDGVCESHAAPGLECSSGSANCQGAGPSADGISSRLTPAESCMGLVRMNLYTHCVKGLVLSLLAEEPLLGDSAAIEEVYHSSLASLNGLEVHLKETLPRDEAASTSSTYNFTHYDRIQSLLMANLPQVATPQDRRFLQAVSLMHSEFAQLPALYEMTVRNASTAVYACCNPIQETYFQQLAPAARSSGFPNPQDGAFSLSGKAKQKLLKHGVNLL
As to the kind of experiment: pull-down.

The target in assay [2] is B3. As to the kind of experiment: cryo-EM structure.
In assay [3] the target is T2, GST-tagged human HPS4 (residues 1-708) (human, UniProt Q9NQG7 1-708).
T2 sequence: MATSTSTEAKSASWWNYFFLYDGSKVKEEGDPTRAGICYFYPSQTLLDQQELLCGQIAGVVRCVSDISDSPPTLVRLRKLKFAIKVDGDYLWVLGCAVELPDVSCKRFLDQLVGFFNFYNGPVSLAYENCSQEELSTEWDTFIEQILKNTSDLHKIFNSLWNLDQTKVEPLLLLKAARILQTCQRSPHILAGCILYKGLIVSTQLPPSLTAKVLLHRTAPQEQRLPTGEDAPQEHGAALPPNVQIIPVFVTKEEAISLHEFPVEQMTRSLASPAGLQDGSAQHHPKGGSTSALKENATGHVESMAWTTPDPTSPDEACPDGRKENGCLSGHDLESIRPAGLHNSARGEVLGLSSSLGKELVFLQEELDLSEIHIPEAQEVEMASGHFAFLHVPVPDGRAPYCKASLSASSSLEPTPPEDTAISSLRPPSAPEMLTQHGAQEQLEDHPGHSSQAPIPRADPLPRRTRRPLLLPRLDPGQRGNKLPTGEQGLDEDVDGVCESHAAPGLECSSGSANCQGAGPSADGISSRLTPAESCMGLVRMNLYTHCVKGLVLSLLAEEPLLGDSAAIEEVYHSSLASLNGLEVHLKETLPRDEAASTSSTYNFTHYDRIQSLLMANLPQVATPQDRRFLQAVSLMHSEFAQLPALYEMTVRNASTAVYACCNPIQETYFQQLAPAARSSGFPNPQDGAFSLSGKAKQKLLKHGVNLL
As to the kind of experiment: SEC.

Assay [4] deals with B2. As to the kind of experiment: SEC. A general note: In gel filtration, larger molecules generally elute earlier.

B1: His-tagged mouse Rab9A Q66L (residues 2-199) (natural protein)
chain: AGKSSLFKIILLGDGGVGKSSLMNRYVTNKFDSQLFHTIGVEFLNKDLEVDGHFVTMQIWDTAGLERFRSLRTPFYRGSDCCLLTFSVDDSQSFQNLSNWKKEFIYYADVKEPESFPFVILGNKTDIKERQVSTEEAQAWCKDNGDYPYFETSAKDSTNVAAAFEEAVRRILATEDRSEHLIQTDTVNLHRKPKPNSS
For B1, in assay [1], the binding result is listed as “binds”. With B2, the binding result in assay [2] is “binds”. Usually stoichiometry N stands for the number of molecules, sites or subunits per partner or assembly. Regarding B3, the binding result in assay [3] is “binds”. In assay [4], the “stoichiometry N” value is 1.
